Results from patent US20250043017A1 (Regeneron, published 2025).

Assays:
human 4-1BB on cells [1] = biological target: T1, human 4-1BB on cells (human, UniProt Q07011 24-255); experiment: flow cytometry, Jurkat/NFkB-Luc/h41BB cells
T1 construct: whole, on cells; also called h41BB; CD137
Method: Binding was detected by using a labeled secondary antibody and measuring fluorescence on a flow cytometer.
Assay set up: OVCAR-3+/−PD-L1 cells were lifted with trypsin, washed and resuspended in stain buffer (2% FBS in PBS). OVCAR-3 and Jurkat/NFkB-Luc/h41BB cells were counted and added to wells at 200,000 cells/well. Cells, in wells of 96-well round bottom plates, were pelleted by centrifugation and resuspended in 150 ul stain buffer (PBS containing 2% FBS). Plates were once again centrifuged and subsequently 100 ul of stain buffer alone or stain buffer containing antibody, titrated from 200 nM to 12 pM in a 9-point 1:4 dose titration were added to cells. Cells and antibodies were incubated for 30 min on ice and then washed in stain buffer. Cells were resuspended in 2 μg/ml allophycocyanin (APC) conjugated goat-anti human secondary antibody. A secondary antibody alone control was included. Cells and secondary were incubated for 30 min on ice and then washed in stain buffer. After a subsequent wash with PBS (containing no FBS), cells were resuspended in viability dye (reconstituted in DMSO according to the manufacturer's protocol and diluted 1:1000 in PBS) and incubated for 20 min on ice. They were then washed with stain buffer and resuspended in 2% PFA for 30 min at 4 C. After washing they were filtered and analyzed by flow cytometry. EC₅₀ values of the antibodies were determined from a 4 parameter logistic equation over a 9-point dose response curve (including secondary only control) using GraphPad Prism software.

[2] = biological target: T2, human 4-1BB expressed with a C-terminal myc-myc-hexahistidine tag (h4-1BB.mmH) (human); experiment: SPR Biacore, 25 C, antibody captured via anti-hFc, h4-1BB.mmH as analyte
T2 construct: also called hCD137 (4-1BB) mmH
Method: The CM5 Biacore sensor surface was derivatized by amine coupling with a monoclonal mouse anti-human Fc antibody. All Biacore binding studies were performed in a buffer composed of 0.01M HEPES pH 7.4, 0.15M NaCl, 3 mM EDTA, 0.05% v/v Surfactant P20 (HBS-EP running buffer). […] Antibody-reagent association was monitored for 5 minutes while dissociation in HBS-EP running buffer was monitored for 10 minutes. At the end of each cycle, the antibody capture surface was regenerated using a 10 sec injection of 20 mM phosphoric acid. All binding kinetics experiments were performed at 25° C.
Data analysis: The specific SPR-Biacore sensorgrams were obtained by a double referencing procedure. The double referencing was performed by first subtracting the signal of each injection over a reference surface (anti-hFc or anti-mFc) from the signal over the experimental surface (anti-hFc-captured anti-PD-L1×4-1BB antibodies) thereby removing contributions from refractive index changes. In addition, running buffer injections were performed to allow subtraction of the signal changes resulting from the dissociation of captured antibodies or antigens from the coupled anti-hFc or anti-mFc surface. Kinetic association (kₐ) and dissociation (kd) rate constants were determined by fitting the real-time sensorgrams to a 1:1 binding model using Scrubber v2.0c curve fitting software. Binding dissociation equilibrium constants (KD) and dissociative half-lives (t½) were calculated from the kinetic rate constants as: […]

human 4-1BB on cells [3] = biological target: T1, human 4-1BB on cells; experiment: cell-based or functional assay
human 4-1BB on cells [4] = biological target: T1, human 4-1BB on cells; experiment: cell-based or functional assay; remark: listed apart in the source
[5] = biological target: T2, human 4-1BB expressed with a C-terminal …; experiment: blocking ELISA, 0.25 nM h4-1BB-mmh binding to coated 6His-Flag-h4-1BBL
Method: The 4-1BB blocking assay was performed similarly to the PD-L1 blocking assay. 6His-Flag-h4-1BBL protein ([…] in PBS) was coated onto a 96-well microtiter plate overnight at 4 °C. […] The plates were developed using TMB substrate solution (BD Biosciences) and the absorbance at 450 nm was measured on a SpectraMax I3x plate reader.
Binding data were analyzed using a sigmoidal (four-parameter logistic) dose-response model with GraphPad Prism™ software. […] The percent blocking of tested antibodies at the highest tested concentration of 100 nM was calculated based on the formula shown below: […]

T1 sequence (Q07011 24-255): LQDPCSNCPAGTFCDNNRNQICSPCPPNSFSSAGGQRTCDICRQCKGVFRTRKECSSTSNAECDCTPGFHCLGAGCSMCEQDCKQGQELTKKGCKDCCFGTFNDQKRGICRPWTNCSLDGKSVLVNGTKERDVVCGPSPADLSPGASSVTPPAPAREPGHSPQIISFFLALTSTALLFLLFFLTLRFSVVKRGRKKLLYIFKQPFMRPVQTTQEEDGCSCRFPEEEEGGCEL
T2 sequence (chain, as listed by the source limits assumed): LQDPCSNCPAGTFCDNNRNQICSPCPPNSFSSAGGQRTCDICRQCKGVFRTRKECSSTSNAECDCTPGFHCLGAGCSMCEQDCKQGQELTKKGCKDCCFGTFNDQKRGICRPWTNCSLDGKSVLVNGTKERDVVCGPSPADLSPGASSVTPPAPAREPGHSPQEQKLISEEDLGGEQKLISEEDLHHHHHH

Row | Binder | EC50 (human 4-1BB on cells [1]) | Fold change (max MFI over secondary antibody alone) (human 4-1BB on cells [1]) | Max [gMFI] (human 4-1BB on cells [1]) | 270 nM h4-1BB-mmH Bind (RU) [2] | Kd [2] | koff [2] | kon [2] | t½ [2] | IL2 release MAX, human CD3+ T cells + HEK293/hCD20/hPSMA + CD20xCD3 (human 4-1BB on cells [3]) | IL2 release MAX, human CD3+ T cells + HEK293/hCD20/hPSMA, no CD20xCD3 (human 4-1BB on cells [3]) | IL2 release MAX, human CD3+ T cells + HEK293/hCD20/hPSMA/hPD-L1 + CD20xCD3 (human 4-1BB on cells [3]) | IL2 release MAX, human CD3+ T cells + HEK293/hCD20/hPSMA/hPD-L1, no CD20xCD3 (human 4-1BB on cells [3]) | NFkB-luciferase MAX (RLU), Jurkat/NFkB-Luc/h41BB + HEK293/hCD20/hPSMA (human 4-1BB on cells [4]) | NFkB-luciferase MAX (RLU), Jurkat/NFkB-Luc/h41BB + HEK293/hCD20/hPSMA/hPD-L1 (human 4-1BB on cells [4]) | % Blocking at 100 nM mAb [5] | NFkB-luciferase EC50, Jurkat/NFkB-Luc/h41BB + HEK293/hCD20/hPSMA (human 4-1BB on cells [4]) | IL2 release EC50, human CD3+ T cells + HEK293/hCD20/hPSMA/hPD-L1 + CD20xCD3 (human 4-1BB on cells [3]) | NFkB-luciferase EC50, Jurkat/NFkB-Luc/h41BB + HEK293/hCD20/hPSMA/hPD-L1 (human 4-1BB on cells [4]) | IC50 [5]
1 | mAb25907 (antibody, V domains shown, bivalent parental anti-4-1BB antibody of REGN6190; also called 25907P2) VH: EVQLVESGGGLVQPGGSLRLSCEASGFTFSSYEMNWVRQAPGKGLEWISHISSSGSSIYYADSVQGRFTISRDKAKNSLYLQMNSLRAEDTAVYYCTREGFEYGSSSGLKYYYYGLDVWGQGTTVTVSS VL: not shown | 0.00508 nM | 60.5 fold | 140000 gMFI | 67.5 RU | 34.2 nM | 0.0196 s⁻¹ | 572000 M⁻¹ s⁻¹ | 36 s | 9.3 pg/mL | 1.6 pg/mL | 4.6 pg/mL | 1.6 pg/mL | 18500 RLU | 18100 RLU | 87% |  |  |  | 
2 | mAb25894 (antibody, V domains shown, bivalent parental anti-4-1BB antibody of REGN6188; also called 25894P2; parental bivalent 4-1BB antibody) VH: EVQLVESGGGLVQPGGSLRLSCVASGFTFSSYEMNWVRQAPGKGLEWVSYISNSGTTIYYAGSVKGRFTISRDNAKKSLYLHMNSLRAEDTAVYYCAREGTIFGTVHYYFALDVWGQGTTVTVSS VL: not shown |  | 44.7 fold | 100000 gMFI | 35.1 RU | 170 nM | 0.0902 s⁻¹ | 530000 M⁻¹ s⁻¹ | 6 s | 9.6 pg/mL | 1 pg/mL | 7.8 pg/mL | 1 pg/mL | 34300 RLU | 29800 RLU | 61% | 14.8 nM |  |  | 
3 | mAb9373 (antibody, V domains shown) VH: QVQLVQSGTEVKKPGASVKVSCKASGYTFTAYYMHWVRQAPGQGLDWMGWISPNSGFTNYAQKFQGRVTMTRDTSINTFYMELSGLRSDDTAVYYCAREGSTHHNSFDPWGQGTLVTVSS VL: not shown |  |  |  |  |  |  |  |  | 11.3 pg/mL | 2.5 pg/mL | 10.3 pg/mL | 2.5 pg/mL | 18500 RLU | 18500 RLU |  |  |  |  | 
4 | REGN6188 (bispecific antibody, human IgG4 S228P, kappa, common light chain 1-39; also called R6188; PD-L1x4-1BB REGN6188) heavy 1: EVQLVESGGGLVQPGRSLRLSCAASGFTFDDYALHWVRQAPGKGLEWVSGISWTGGTIDYADSVKGRFTISRDNAKNSLYLQMSSLRTEDTAIYYCTRDIRGNWKYGGWFDPWGQGTLVTVSSASTKGPSVFPLAPCSRSTSESTAALGCLVKDYFPEPVTVSWNSGALTSGVHTFPAVLQSSGLYSLSSVVTVPSSSLGTKTYTCNVDHKPSNTKVDKRVESKYGPPCPPCPAPPVAGPSVFLFPPKPKDTLMISRTPEVTCVVVDVSQEDPEVQFNWYVDGVEVHNAKTKPREEQFNSTYRVVSVLTVLHQDWLNGKEYKCKVSNKGLPSSIEKTISKAKGQPREPQVYTLPPSQEEMTKNQVSLTCLVKGFYPSDIAVEWESNGQPENNYKTTPPVLDSDGSFFLYSRLTVDKSRWQEGNVFSCSVMHEALHNHYTQKSLSLSLGK heavy 2: EVQLVESGGGLVQPGGSLRLSCVASGFTFSSYEMNWVRQAPGKGLEWVSYISNSGTTIYYAGSVKGRFTISRDNAKKSLYLHMNSLRAEDTAVYYCAREGTIFGTVHYYFALDVWGQGTTVTVSSASTKGPSVFPLAPCSRSTSESTAALGCLVKDYFPEPVTVSWNSGALTSGVHTFPAVLQSSGLYSLSSVVTVPSSSLGTKTYTCNVDHKPSNTKVDKRVESKYGPPCPPCPAPPVAGPSVFLFPPKPKDTLMISRTPEVTCVVVDVSQEDPEVQFNWYVDGVEVHNAKTKPREEQFNSTYRVVSVLTVLHQDWLNGKEYKCKVSNKGLPSSIEKTISKAKGQPREPQVYTLPPSQEEMTKNQVSLTCLVKGFYPSDIAVEWESNGQPENNYKTTPPVLDSDGSFFLYSRLTVDKSRWQEGNVFSCSVMHEALHNRFTQKSLSLSPGK light: not shown |  | 22.9 fold | 52000 gMFI | 25.4 RU | 128 nM | 0.0948 s⁻¹ | 742000 M⁻¹ s⁻¹ | 6 s | 7.2 pg/mL | 5.1 pg/mL | 45.8 pg/mL | 5.1 pg/mL | 35900 RLU | 562000 RLU | 33% |  | 0.926 nM | 0.558 nM | 
5 | mAb25898 (antibody, V domains shown, bivalent parental anti-4-1BB antibody of REGN6189; also called 25898P2; parental bivalent 4-1BB antibody) VH: QVQLVESGGDVVQPGRSLRLSCTASGFTFSSFGMHWVRQAPGKGLEWVTFLSYDGSYKYYADSVKGRFTISRDNSKNTLYLQMNSLRAEDTAIFYCARDWLDYWGQGTLVTVSS VL: not shown | 0.0406 nM | 53.8 fold | 120000 gMFI | 63.8 RU | 94.5 nM | 0.0282 s⁻¹ | 298000 M⁻¹ s⁻¹ | 24 s | 8.4 pg/mL | 3.3 pg/mL | 5.1 pg/mL | 3.3 pg/mL | 19000 RLU | 19000 RLU | 70% |  |  |  | 
6 | mAb25921 (antibody, V domains shown, bivalent parental anti-4-1BB antibody of REGN6191; also called 25921P2; a-4-1BB) VH: QVQLVQSGAEVKKPGASVKVSCKASAYTFTSYGFSWVRQAPGQGLEWMGWISTSNGYTNYAQKIQDRVTMTTDTSTSTAYMELRSLRSDDTAVYYCASLSNWVSFFDYWGQGTLVTVSS VL: not shown | 0.287 nM | 76.9 fold | 170000 gMFI |  |  |  |  |  | 10 pg/mL | 1 pg/mL | 5.8 pg/mL | 1 pg/mL | 18000 RLU | 18000 RLU | 94% |  |  |  | 0.75 nM
